Measured values reported in patent publication CN114652851A (STONE BIOPHARMACEUTICAL CO LTD, dated 2022).

Molecular target: T1, Human TROP2蛋白 (human, UniProt P09758 27-274, limits assumed)
T1 construct: also called 人TROP2
T1 sequence (looked up): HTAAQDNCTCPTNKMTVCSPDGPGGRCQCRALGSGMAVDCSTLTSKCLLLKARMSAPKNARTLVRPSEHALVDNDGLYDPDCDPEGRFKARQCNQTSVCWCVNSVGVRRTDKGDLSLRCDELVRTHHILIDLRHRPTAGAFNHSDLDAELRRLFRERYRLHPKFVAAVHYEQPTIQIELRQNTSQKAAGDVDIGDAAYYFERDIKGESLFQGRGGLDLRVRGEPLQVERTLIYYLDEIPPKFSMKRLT
Assay: ELISA, TROP2 protein incubated with antibody dilutions, goat anti-human IgG (H+L) secondary antibody

binding result: binds
B1: SY02人源化抗体 (人源化抗TROP2抗体SY02) (antibody, human IgG1, kappa, V domains shown)
VH: QVQLVQSGAEVKKPGSSVKVSCKASGYTFTDYSINWVRQAPGQGLEWMGVISTYYGDASYNQKFKGRVTITADESTSTAYMELSSLRSEDTAVYYCARYGDGYNQFDYWGQGTLVTVSS
VL: DIQMTQSPSSLSASVGDRVTITCRVSESVDSYGNNFMHWYQQKPGKAPKLLIYRASNLESGVPSRFSGSGSGTDFTFTISSLQPEDIATYYCQQSYEDPYTFGGGTKLEIKR
notes: also called 裸抗SY02
